Holding throughout (type): cell-based, Homo sapiens
What all share (conditions): sodium (lithium also drives uptake)

Data set [1] relates to C[N+](C)(C)[C@@H](Cc1c[nH]c(=S)[nH]1)C(=O)[O-]. Nature of the data set: radiolabelled uptake kinetics in transfected HEK293 Flp-In cells.
The subject of data set [2] is CN(CC(=O)O)C(=N)N. The description is as above.
For data set [3], the system named is NCCC(=O)N[C@@H](Cc1cnc[nH]1)C(=O)O. The description is as above.
The test system of data set [4] is C[N+](C)(C)C[C@H](O)CC(=O)[O-]. Nature of the data set: radiolabelled uptake kinetics.

As usually defined, the Km is the concentration of substrate that gives half-maximal velocity. Take SLC22A15 (Homo sapiens): the Km stood at 354 ± 95 µM in data set [1], 291 ± 124 µM in data set [2], 510 ± 175 µM in data set [3] and 99 ± 94 µM in data set [4].

The record behind these values is PMC7839234.
